Results: patent publication US20210403549A1

Biological target: low density lipoprotein (LDL) (UniProt P04114)
Assay: bio-layer interferometry with LDL; beside the traces: clear dose-dependent binding

Sequence of low density lipoprotein (LDL) (P04114 28-4563 limits assumed): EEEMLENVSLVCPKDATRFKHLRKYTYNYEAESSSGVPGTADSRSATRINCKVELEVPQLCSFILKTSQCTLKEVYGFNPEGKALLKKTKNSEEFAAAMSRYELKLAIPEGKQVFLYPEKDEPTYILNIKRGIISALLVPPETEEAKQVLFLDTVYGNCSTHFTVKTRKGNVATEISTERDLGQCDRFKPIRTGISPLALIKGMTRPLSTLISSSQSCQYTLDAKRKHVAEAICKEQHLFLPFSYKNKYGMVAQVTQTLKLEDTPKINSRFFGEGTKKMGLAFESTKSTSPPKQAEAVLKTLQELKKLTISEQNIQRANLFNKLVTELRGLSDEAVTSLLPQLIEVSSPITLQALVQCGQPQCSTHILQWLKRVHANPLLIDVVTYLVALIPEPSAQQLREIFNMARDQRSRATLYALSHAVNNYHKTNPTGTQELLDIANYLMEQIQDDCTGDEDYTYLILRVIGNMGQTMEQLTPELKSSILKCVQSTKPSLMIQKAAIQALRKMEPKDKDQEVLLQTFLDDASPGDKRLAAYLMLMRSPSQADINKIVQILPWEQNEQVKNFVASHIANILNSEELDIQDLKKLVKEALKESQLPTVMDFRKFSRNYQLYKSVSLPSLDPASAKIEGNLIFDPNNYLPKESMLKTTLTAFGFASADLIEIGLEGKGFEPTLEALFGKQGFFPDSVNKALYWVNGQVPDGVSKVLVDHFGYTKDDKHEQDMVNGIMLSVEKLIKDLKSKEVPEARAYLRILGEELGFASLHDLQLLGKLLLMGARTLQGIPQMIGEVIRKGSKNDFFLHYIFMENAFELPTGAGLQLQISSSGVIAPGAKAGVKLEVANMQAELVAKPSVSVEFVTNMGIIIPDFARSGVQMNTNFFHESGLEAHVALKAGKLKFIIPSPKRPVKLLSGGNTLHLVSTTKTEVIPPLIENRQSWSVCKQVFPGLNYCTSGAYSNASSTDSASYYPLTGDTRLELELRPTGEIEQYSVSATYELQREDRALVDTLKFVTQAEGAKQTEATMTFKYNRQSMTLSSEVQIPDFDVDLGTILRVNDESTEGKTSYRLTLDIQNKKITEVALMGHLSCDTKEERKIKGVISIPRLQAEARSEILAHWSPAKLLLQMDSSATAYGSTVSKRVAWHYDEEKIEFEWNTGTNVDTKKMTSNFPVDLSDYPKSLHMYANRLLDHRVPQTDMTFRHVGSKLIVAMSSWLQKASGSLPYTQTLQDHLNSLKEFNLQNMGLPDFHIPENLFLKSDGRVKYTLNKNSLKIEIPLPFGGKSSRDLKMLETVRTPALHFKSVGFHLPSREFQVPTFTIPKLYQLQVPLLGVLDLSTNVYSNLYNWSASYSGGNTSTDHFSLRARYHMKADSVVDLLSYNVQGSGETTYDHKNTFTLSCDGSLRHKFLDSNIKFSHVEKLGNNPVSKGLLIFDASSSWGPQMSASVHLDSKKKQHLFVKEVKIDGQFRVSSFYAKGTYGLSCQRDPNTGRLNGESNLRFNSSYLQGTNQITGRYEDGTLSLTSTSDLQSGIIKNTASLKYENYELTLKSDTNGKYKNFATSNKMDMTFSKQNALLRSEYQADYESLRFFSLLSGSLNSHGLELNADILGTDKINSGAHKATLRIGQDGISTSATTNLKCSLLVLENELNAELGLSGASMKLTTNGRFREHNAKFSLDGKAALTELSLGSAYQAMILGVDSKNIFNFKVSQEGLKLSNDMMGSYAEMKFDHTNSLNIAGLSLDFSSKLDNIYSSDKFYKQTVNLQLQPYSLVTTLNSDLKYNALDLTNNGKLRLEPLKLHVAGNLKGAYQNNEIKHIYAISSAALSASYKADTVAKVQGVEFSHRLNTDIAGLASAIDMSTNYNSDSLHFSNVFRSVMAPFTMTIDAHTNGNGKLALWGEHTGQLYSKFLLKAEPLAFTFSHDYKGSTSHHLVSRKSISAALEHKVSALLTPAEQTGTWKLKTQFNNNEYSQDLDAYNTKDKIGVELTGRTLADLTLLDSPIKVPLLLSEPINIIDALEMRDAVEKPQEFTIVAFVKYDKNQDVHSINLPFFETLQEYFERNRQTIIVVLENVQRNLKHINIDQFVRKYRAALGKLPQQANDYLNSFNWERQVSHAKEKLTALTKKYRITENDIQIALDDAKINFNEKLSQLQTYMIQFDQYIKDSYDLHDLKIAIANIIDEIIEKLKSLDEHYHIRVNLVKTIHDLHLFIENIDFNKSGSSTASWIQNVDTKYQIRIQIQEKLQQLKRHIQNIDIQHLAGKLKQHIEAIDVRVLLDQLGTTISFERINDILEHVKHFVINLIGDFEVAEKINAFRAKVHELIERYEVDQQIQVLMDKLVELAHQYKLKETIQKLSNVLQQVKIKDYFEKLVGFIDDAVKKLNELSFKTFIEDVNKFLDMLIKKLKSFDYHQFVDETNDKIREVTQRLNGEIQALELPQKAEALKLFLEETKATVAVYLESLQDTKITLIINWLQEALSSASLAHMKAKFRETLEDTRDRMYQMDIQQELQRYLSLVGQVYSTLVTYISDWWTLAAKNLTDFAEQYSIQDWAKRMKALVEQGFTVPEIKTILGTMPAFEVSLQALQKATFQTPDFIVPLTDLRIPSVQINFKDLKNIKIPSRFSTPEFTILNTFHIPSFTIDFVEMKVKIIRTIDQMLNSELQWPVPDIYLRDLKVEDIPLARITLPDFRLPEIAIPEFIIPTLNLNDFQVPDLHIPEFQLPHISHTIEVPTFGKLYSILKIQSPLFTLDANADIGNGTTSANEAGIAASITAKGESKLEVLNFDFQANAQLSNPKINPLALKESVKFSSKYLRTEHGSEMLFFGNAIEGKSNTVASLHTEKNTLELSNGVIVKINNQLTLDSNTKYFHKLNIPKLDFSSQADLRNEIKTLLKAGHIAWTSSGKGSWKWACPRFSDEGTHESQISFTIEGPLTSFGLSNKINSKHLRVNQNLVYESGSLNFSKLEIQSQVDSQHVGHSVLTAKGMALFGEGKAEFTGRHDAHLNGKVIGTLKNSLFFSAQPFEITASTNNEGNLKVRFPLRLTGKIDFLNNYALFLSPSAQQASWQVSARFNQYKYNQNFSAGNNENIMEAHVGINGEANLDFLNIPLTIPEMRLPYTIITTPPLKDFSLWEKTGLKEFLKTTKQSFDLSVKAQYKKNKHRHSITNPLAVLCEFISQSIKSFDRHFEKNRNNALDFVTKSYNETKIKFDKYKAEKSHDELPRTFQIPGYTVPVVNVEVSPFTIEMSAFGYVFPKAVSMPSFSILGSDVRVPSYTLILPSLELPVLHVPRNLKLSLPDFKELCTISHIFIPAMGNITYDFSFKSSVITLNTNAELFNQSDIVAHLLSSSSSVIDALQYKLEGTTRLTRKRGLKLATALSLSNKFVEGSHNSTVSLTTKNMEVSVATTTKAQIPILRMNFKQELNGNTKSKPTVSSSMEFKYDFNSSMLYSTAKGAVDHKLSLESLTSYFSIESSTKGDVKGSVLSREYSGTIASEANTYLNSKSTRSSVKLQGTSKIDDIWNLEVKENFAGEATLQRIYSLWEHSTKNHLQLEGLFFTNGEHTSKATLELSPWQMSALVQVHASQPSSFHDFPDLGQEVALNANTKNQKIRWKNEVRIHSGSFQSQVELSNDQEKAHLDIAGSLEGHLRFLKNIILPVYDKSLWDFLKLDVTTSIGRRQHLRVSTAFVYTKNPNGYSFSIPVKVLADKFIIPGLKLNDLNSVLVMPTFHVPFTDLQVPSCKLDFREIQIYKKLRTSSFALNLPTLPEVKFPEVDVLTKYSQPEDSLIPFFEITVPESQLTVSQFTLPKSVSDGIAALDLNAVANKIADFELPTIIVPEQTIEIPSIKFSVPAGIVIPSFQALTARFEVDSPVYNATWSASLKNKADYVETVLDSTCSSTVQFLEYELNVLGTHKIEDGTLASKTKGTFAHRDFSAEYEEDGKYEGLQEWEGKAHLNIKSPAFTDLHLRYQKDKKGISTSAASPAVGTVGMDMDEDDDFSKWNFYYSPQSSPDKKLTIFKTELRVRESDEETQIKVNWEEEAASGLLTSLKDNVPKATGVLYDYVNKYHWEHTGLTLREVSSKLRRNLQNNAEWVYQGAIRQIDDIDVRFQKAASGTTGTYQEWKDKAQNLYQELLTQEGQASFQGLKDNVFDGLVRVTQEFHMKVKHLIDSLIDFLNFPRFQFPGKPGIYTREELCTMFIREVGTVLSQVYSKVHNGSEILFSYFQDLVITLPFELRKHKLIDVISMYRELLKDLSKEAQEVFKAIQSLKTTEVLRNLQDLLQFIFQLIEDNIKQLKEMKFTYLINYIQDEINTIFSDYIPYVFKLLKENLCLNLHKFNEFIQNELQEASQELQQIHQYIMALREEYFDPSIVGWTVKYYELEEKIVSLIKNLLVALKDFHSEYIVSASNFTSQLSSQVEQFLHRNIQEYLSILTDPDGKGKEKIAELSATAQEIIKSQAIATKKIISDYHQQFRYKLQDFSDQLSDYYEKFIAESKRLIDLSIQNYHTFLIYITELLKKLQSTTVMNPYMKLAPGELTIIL

Kd: 525 nM
Substance: ALK1-E75A-hsIgG-Fc (Fc fusion)
